From the supplement of paper PMC10567573

B1: TPPP (parent)
chain: LCKDCQVIDGRNVTVTDVDIVFSK

Variants of: B1
Experiment: protein stability index of a GFP-peptide fusion (GPS, HEK-293T) (PSI 1-6); higher = more stable
Details: c terminus: a fixed tail appended
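Note: lentivirally expressed fusions sorted by FACS into six bins by GFP to DsRed ratio, PSI derived from sequencing read proportions per bin multiplied by bin number.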

Protein stability index of substitutions, site by site:
C5: S 4.01, T 3.35, V 3.36, W 2.28, Y 2.94
Q6: A 2.05, C 2.09, D 2.69, E 2.9, F 1.74, G 2.78, H 2.73, K 2.16, L 1.97, M 2.66, N 2.49, P 3.16, R 2.8, S 2.61, T 2.7, V 2.14, W 2.17, Y 2.4
V7: A 2.61, C 2.4, D 3.64, E 2.94, F 2.33, G 2.59, H 2.44, I 2.33, K 2.46, L 2.2, M 2.31, N 2.61, P 2.96, Q 2.46, R 2.8, S 3.05, T 2.87, W 3.61, Y 1.53
I8: A 2.84, C 2.3, D 3.97, E 3.21, F 2.42, G 2.54, H 2.43, K 2.6, L 2.24, M 2.81, N 2.35, P 3.19, Q 3.14, R 3.2, S 2.79, T 3.12, V 3.47, W 1.83, Y 2
D9: A 1.96, C 2.05, E 2.66, F 1.9, G 2.1, H 2.07, I 1.66, K 2.48, L 2.48, M 2.19, N 2, P 2.65, Q 2.76, R 2.53, S 2.45, T 2.99, V 1.21, W 1.84, Y 2.27
G10: A 2.31, C 2.14, D 3.35, E 2.55, F 1.77, H 2.8, I 1.3, K 2.88, L 1.61, M 1.54, N 2.39, P 2.63, Q 2.47, R 2.51, S 2.74, T 2.52, V 2.34, W 2.33, Y 1.99
R11: A 2.54, C 2.35, D 3.54, E 2.9, F 1.91, G 2.56, H 2.15, I 1.68, K 2.71, L 1.68, M 2.16, N 2.85, P 2.57, Q 2.35, S 2.58, T 2.35, V 2.05, W 1.78, Y 1.55
N12: A 2.57, C 2.17, D 2.68, E 3.88, F 2.48, G 2.48, H 2.65, I 1.53, K 2.52, L 2.57, M 1.73, P 2.4, Q 2.3, R 2.23, S 1.98, T 2.11, V 1.71, Y 2.66
V13: A 2.75, C 2.16, D 3.04, E 3.59, F 2.08, G 2.79, H 2.32, I 2.31, K 2.36, L 2.48, M 2.54, N 2.6, P 3.08, Q 2.49, R 3.03, S 3.12, T 2.38, W 3.13, Y 2.37
T14: A 2.81, C 2.41, D 2.68, E 3.2, F 1.91, G 3.05, H 2.61, I 2.76, K 2.48, L 1.84, M 1.6, N 2.73, P 2.75, Q 2.7, R 2.4, S 2.83, V 1.72, W 2.52, Y 2.15
V15: A 2.6, C 2.62, D 3.04, E 3.64, F 2.54, G 2.65, H 2.92, I 2.02, K 2.89, L 2.28, M 1.97, N 2.95, P 4.11, Q 2.92, R 3.44, S 2.48, T 2.96, W 2.22, Y 2.01
T16: A 2.23, C 1.72, D 3.37, E 3.01, G 2.01, H 2.44, I 3.14, K 3.06, L 1.72, M 1.48, N 2.59, P 2.23, Q 2.54, R 2.44, S 2.92, W 1.24, Y 1.3
D17: A 2.33, E 2.07, G 2.14, H 2.48, I 3.91, K 1.77, L 3.14, M 2.29, N 1.45, P 2.21, Q 1.77, R 2.92, S 1.28, T 1.69, V 2.65, W 2.1, Y 2.97
V18: A 2.9, C 2.48, D 3.58, E 3.52, F 2.54, G 3.11, H 2.91, I 2.44, K 2.77, L 2.4, M 1.92, N 3.79, P 2.73, Q 3.16, R 3.06, S 3.12, T 3.69, W 2.23, Y 2.6
D19: A 2.77, C 2.4, E 1.79, F 2.45, G 2.08, H 2.97, I 2.09, K 1.39, L 2.26, M 2.28, N 2.13, P 2.56, Q 1.65, R 1.36, S 2.39, T 1.42, V 1.95, W 2.96, Y 1.47
I20: A 3.04, C 2.68, D 3.46, E 3.92, F 2.38, G 3.35, H 2.91, K 3.27, L 3.02, M 2.5, N 3.5, P 3.14, Q 3.79, R 3.22, S 2.55, T 3.06, W 1.98, Y 2.63
V21: A 3.47, C 2.53, D 4, E 3.88, F 1.8, G 3.28, H 2.65, I 1.87, K 3.22, L 2.54, M 1.96, N 3.45, P 2.66, Q 2.15, R 2.46, S 3.34, T 3.2, W 2.07, Y 2.08
F22: A 2.5, C 3.38, D 3.96, E 4.25, G 4.09, H 4.43, I 2.09, K 3.94, L 2.08, M 3.12, N 3.66, P 3.47, Q 3.59, R 3.31, S 2.78, T 3.48, V 2.53, W 2.3, Y 2.84
S23: A 2.55, C 3.21, D 2.81, E 3.28, F 1.58, G 3.13, H 3.26, I 2.1, K 3.58, L 1.82, M 1.84, N 2.75, P 2.98
